Results from paper PMC4740771, “Nucleotide-dependent assembly of the peroxisomal receptor export complex” (Scientific Reports, 2016).

Experiments:
Conditions in all cases: both partners purified
[1] = target: T1, HisPex1p(E798Q) released from its GST fusion (S. cerevisiae, UniProt P24004 1-1043, E798Q); test: SEC; second gel filtration of the purified heterohexameric complexes after incubation at 37 °C
T1 construct: Pex1p of yeast with a Walker B mutation of the D2 domain; also called Pex1WB^E798Q; Pex1pWB; not shown: His6, N-terminal, kept; GST, C-terminal, cleaved
T1 sequence (looked up): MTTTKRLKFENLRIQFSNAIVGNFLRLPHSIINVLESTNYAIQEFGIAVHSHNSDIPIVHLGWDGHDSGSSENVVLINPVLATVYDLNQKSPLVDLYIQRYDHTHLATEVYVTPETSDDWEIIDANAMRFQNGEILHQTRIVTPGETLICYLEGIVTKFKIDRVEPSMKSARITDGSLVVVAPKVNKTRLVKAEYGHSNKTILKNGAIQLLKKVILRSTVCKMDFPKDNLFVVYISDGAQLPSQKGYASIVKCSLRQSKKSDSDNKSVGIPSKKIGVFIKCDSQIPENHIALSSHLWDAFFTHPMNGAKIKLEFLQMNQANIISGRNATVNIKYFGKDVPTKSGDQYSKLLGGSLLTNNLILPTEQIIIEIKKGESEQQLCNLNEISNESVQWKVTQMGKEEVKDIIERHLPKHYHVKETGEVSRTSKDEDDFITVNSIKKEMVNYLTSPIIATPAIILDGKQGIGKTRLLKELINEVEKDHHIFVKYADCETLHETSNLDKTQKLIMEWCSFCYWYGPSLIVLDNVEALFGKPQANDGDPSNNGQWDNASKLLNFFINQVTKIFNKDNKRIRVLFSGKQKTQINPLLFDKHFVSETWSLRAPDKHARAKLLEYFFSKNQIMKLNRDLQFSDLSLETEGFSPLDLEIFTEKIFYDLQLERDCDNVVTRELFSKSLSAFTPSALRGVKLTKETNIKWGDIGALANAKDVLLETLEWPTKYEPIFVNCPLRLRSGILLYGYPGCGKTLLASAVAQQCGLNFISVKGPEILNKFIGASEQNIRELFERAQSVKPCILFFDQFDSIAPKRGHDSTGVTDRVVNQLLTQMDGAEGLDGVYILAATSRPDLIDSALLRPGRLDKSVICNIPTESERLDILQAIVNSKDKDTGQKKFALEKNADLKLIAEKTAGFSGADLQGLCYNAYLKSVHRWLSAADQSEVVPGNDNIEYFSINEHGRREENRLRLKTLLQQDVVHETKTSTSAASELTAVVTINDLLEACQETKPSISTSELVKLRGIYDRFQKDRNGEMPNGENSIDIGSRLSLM

[2] = target: T2, Pex15p(1-315)His (GST removed by thrombin) (S. cerevisiae, UniProt Q08215 1-315); test: SEC; Pex1/6p/Pex15p complex isolated on GSH-agarose, released by thrombin (GST left on the column), Superose 6 (small-scale and preparative) in presence of ATP; anti-His immunoblot or Coomassie, signal intensities by ImageJ
T2 construct: Pex15p of S. cerevisiae, cytosolic part, residues 1 to 315; Same construct as m10 after thrombin cleavage; detected by anti-His antibodies; Printed mass 36 kDa; alone it eluted at about 100 kDa; also called Pex15pHis; source: E. coli BL21 (DE3), purified (Glutathione Agarose 4B), released from GSH-agarose by thrombin; not shown: GST, N-terminal, cleaved; His6, C-terminal, kept
T2 sequence (looked up): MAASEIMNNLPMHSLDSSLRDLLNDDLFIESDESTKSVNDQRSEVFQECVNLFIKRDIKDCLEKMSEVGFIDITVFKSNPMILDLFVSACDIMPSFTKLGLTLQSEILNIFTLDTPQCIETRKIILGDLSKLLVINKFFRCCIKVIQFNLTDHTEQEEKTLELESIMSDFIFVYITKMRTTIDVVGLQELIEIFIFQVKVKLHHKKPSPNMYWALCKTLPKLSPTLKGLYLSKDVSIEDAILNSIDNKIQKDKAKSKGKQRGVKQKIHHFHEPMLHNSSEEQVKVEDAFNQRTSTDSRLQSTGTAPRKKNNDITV

[3] = target: T3, HisPex1p released from HisPex1pGST by thrombin (S. cerevisiae, UniProt P24004 1-1043); test: as above
T3 construct: Pex1p, type II AAA-ATPase peroxin of yeast; The GST tag held the complex on GSH-agarose during purification and stayed on the column after thrombin cleavage; source: E. coli Tuner (DE3), co-purified with HisPex6p (NiNTA-agarose, GSH-agarose, thrombin release); not shown: His6, N-terminal, kept; GST, C-terminal, cleaved
T3 sequence (looked up): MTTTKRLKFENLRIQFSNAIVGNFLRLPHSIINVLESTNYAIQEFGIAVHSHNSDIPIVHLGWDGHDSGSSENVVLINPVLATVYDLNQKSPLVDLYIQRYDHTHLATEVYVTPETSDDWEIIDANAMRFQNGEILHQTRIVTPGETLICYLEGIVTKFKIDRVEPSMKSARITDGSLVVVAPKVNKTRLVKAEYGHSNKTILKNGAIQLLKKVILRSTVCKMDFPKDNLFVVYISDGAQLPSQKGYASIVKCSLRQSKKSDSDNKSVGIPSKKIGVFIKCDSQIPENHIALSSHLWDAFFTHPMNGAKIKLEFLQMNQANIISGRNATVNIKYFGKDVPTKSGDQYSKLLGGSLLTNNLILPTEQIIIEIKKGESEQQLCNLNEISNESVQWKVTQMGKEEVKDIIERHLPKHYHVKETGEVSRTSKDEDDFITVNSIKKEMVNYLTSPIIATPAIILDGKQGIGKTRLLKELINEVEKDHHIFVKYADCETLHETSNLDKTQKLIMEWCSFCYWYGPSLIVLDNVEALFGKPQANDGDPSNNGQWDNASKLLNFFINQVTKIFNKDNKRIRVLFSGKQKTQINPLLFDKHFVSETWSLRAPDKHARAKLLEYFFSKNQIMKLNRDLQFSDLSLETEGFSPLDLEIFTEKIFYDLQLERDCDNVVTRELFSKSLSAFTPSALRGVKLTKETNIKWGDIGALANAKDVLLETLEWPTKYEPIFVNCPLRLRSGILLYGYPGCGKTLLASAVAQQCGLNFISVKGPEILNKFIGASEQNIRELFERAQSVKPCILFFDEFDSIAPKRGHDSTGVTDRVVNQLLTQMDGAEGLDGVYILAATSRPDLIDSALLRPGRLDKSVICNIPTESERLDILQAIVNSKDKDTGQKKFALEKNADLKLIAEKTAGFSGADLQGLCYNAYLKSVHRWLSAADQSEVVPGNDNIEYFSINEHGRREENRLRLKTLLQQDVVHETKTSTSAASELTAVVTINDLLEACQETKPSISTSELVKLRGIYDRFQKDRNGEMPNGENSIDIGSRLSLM

B1: HisPex6p (natural protein, S. cerevisiae, UniProt P33760 1-1030, looked up)
chain: MKASLTFSLSGIYAPCSISRDIYLEYGDKKAECLYGTIRLPQYGPGCTPGKIVHCVLDDSLPFCSIVVPSKLFGFMPTQPTMDFCYFEPILDNVVPVLDSVTFLINEQLYSKLMDLPQEMQQIQFLHYKYNINSMETVVHSRDILTSGLCQILNCSPFPQGLVDFTETQLILVNDTEQKLSALKYANEDEEYALPKIGTNSALSIDLESLPCTISRDLLRPAPHINDDNSIYAFTDAETLLRLDVTSGSFITVSNMGCVRLVKLFVLLLPNGFKKRTIYAPPKIIASFPDCSVVTISKSNIGHTDIPIANQVFISRVGGWLQSQKCFQNIILTTLKKFFSESKRILCQNDLIPIAFDSSMADLNIAEENDESDDEDELGQYYKNDSLVWFFVTSAELDCFSKDNSHFIIDPNRTKLITTNITNRRPLPLSRSNLQRYYGFAETFYYDLHIFPYVRQLVNILETSFNCSQRGITLNASVLLHSTTNNVGKATMVRFASKYLGIHLLEIDCLSLTSNSRQLDSTSKIIGYIRAKCENVLPYASPAVIFLAHLDSILLDVNANQDPEAIKLQKSINFEMSKLLDDFTFKFPGTTFVGSVNNIDNVPSSFRSHMRFEILVPVPSEAQRLRIFQWYLSSHELNRDVQQKVPVSYMDNISFSSLSSYSAGLTPLDIKSIVETARMTATARFYQESKKCGWLPQSILITQEDLSKATSKARNEFSVSIGAPQIPNVTWDDIGGIDFVKGEILDTIDMPLKHPELFTSGMKKRSGILFYGPPGTGKTLMAKAIATNFSLNFFSVKGPELLNMYIGESEANVRRVFQKAREAKPCVIFFDEIDSVAPKRGNQGDSGGVMDRIVSQLLAELDGMSTDADGVFVIGATNRPDLLDEALLRPGRFDKLLYLGIPDTDTKQLNILEALTRKFVLDNDVKLIELAKLCPFNYTGADFYALCSDAMLNAMSRIARMVEKKVSQHNELTGENISTRRWFDKIATKEDTKVVVKMEDFLKAQEQLTPSVSRAELNHYEAVRANFEGA
notes: Pex6p, type II AAA-ATPase peroxin of yeast; also called single Pex6p; isolated Pex6p; source: E. coli Tuner (DE3), purified (NiNTA-agarose; with HisPex1pGST also GSH-agarose and size exclusion); not shown: His6, N-terminal, kept
- binding result [1]: binds
- stoichiometry N [2]: 1 Pex15p per Pex6p
- stoichiometry N [3]: 0.9 Pex6p per Pex1p
